According to PMC11773488:

How the values were obtained:
[1] = biological target: Venus-tagged mini-Gsi (mGsi); assay: BRET; conditions: HEK293 cells; WKYMVm at x = -5 (highest concentration), 10 min; parent: est. 0.076; read off a plot
[2] = biological target: β-arrestin 2 fused to Venus fluorescent protein (UniProt P32121); assay: BRET; conditions: HEK293 cells; WKYMVm at x = -5 (highest concentration), 10 min; parent: est. 0.064; read off a plot
[3] = biological target: N-terminal FLAG-tagged human formyl-peptide receptor 2 fused C-terminally to Renilla luciferase (FPR2-Rluc8) (human) (UniProt P25090); assay: FRET or BRET; BRET as a1, in ΔQ-GRK cells co-transfected with GRK2; WKYMVm 10 min
[4] = biological target: N-terminal FLAG-tagged human formyl-peptide receptor 2 fused C-terminally to Renilla luciferase (FPR2-Rluc8) (human) (UniProt P25090); assay: FRET or BRET; BRET as a1, in ΔQ-GRK cells co-transfected with GRK3; WKYMVm 10 min
[5] = biological target: N-terminal FLAG-tagged human formyl-peptide receptor 2 fused C-terminally to Renilla luciferase (FPR2-Rluc8) (human) (UniProt P25090); assay: FRET or BRET; BRET as a1, in ΔQ-GRK cells co-transfected with GRK5; WKYMVm 10 min
[6] = biological target: N-terminal FLAG-tagged human formyl-peptide receptor 2 fused C-terminally to Renilla luciferase (FPR2-Rluc8) (human) (UniProt P25090); assay: FRET or BRET; BRET as a1, in ΔQ-GRK cells co-transfected with GRK6; WKYMVm 10 min
[7] = biological target: N-terminal FLAG-tagged human formyl-peptide receptor 2 fused C-terminally to Renilla luciferase (FPR2-Rluc8) (human) (UniProt P25090); assay: FRET or BRET; BRET as a1, in CRISPR-Cas9-edited HEK293 cells without GRK2/3 (ΔGRK2/3); WKYMVm 10 min
[8] = biological target: N-terminal FLAG-tagged human formyl-peptide receptor 2 fused C-terminally to Renilla luciferase (FPR2-Rluc8) (human) (UniProt P25090); assay: FRET or BRET; BRET as a1, in CRISPR-Cas9-edited HEK293 cells without GRK5/6 (ΔGRK5/6); WKYMVm 10 min
[9] = biological target: N-terminal FLAG-tagged human formyl-peptide receptor 2 fused C-terminally to Renilla luciferase (FPR2-Rluc8) (human) (UniProt P25090); assay: FRET or BRET; BRET as a1, FPR2-RLuc8 with Venus-β-arrestin in Control cells of the GRK-edited HEK293 panel; WKYMVm 10 min
[10] = biological target: FPR2 ΔAB-RLuc8 (human) (UniProt P25090); assay: FRET or BRET; BRET in live HEK293 cells co-transfected with receptor-RLuc8 (donor, 400 ng) and Venus-tagged mGsi, β-arrestin 1 or β-arrestin 2 (acceptor), 4:1 acceptor:donor; 37°C, Hank's balanced salt solution, 5 μM coelenterazine H; increasing WKYMVm, read 10 min after agonist; ratio acceptor:donor minus untreated; Emax by nonlinear regression; pertussis toxin pretreatment had no effect on β-arrestin recruitment
[11] = biological target: FPR2 ΔABC with S326 reintroduced, RLuc8 fusion (human) (UniProt P25090); assay: as above
[12] = biological target: FPR2 ΔABC with S328 (printed once as S329) reintroduced, RLuc8 fusion (human) (UniProt P25090); assay: as above
[13] = biological target: FPR2 ΔABC with T331 reintroduced, RLuc8 fusion (human) (UniProt P25090); assay: as above
[14] = biological target: FPR2 ΔABC-RLuc8 (all C-terminal serine and threonine residues mutated to alanine) (human) (UniProt P25090); assay: as above
[15] = biological target: FPR2 ΔAC-RLuc8 (human) (UniProt P25090); assay: as above
[16] = biological target: FPR2 ΔBC-RLuc8 (human) (UniProt P25090); assay: as above
[17] = biological target: N-terminal FLAG-tagged human formyl-peptide receptor 2 fused C-terminally to Renilla luciferase (FPR2-Rluc8) (human) (UniProt P25090); assay: as above
[18] = biological target: FPR2 S326A-RLuc8 (human) (UniProt P25090); assay: as above
[19] = biological target: FPR2 S328A-RLuc8 (human) (UniProt P25090); assay: as above
[20] = biological target: FPR2 T331A-RLuc8 (human) (UniProt P25090); assay: as above
[21] = biological target: N-terminal FLAG-tagged human formyl-peptide receptor 2 fused C-terminally to Renilla luciferase (FPR2-Rluc8) (human) (UniProt P25090); assay: as above; remark: listed apart in the source

## N-terminal FLAG-tagged human formyl-peptide receptor 2 fused C-terminally to Renilla luciferase (FPR2-Rluc8) (from UniProt P25090) DAC (… to …; R to A of the DRC motif)
[1]
  response: 0 N-BRET
[2]
  response: 0.033 N-BRET

## β-arrestin 2 fused to Venus fluorescent protein (from UniProt P32121 1-409) (natural protein)
[3]
  Emax (BRET) (normalized acceptor:donor ratio): 0.0987
[4]
  Emax (BRET) (normalized acceptor:donor ratio): 0.0949
[5]
  Emax (BRET) (normalized acceptor:donor ratio): 0.0971
[6]
  Emax (BRET) (normalized acceptor:donor ratio): 0.0583
[7]
  Emax (BRET) (normalized acceptor:donor ratio): 0.0807
[8]
  Emax (BRET) (normalized acceptor:donor ratio): 0.0541
[9]
  Emax (BRET) (normalized acceptor:donor ratio): 0.098
[10]
  Emax (BRET) (normalized acceptor:donor ratio): 0.0396
[11]
  Emax (BRET) (normalized acceptor:donor ratio): 0.0217
[12]
  Emax (BRET) (normalized acceptor:donor ratio): 0.0111
[13]
  Emax (BRET) (normalized acceptor:donor ratio): 0.0194
[14]
  Emax (BRET) (normalized acceptor:donor ratio): 0.0146
[15]
  Emax (BRET) (normalized acceptor:donor ratio): 0.0691
[16]
  Emax (BRET) (normalized acceptor:donor ratio): 0.0015
[17]
  Emax (BRET) (normalized acceptor:donor ratio): 0.0715
[18]
  Emax (BRET) (normalized acceptor:donor ratio): 0.0605
[19]
  Emax (BRET) (normalized acceptor:donor ratio): 0.0608
[20]
  Emax (BRET) (normalized acceptor:donor ratio): 0.0611
[21]
  Emax (BRET) (normalized acceptor:donor ratio): 0.0854

## β-arrestin 1 fused to Venus fluorescent protein (from UniProt P49407 1-418) (natural protein)
[3]
  Emax (BRET) (normalized acceptor:donor ratio): 0.0822
[4]
  Emax (BRET) (normalized acceptor:donor ratio): 0.0855
[5]
  Emax (BRET) (normalized acceptor:donor ratio): 0.0884
[6]
  Emax (BRET) (normalized acceptor:donor ratio): 0.0557
[7]
  Emax (BRET) (normalized acceptor:donor ratio): 0.0708
[8]
  Emax (BRET) (normalized acceptor:donor ratio): 0.0299
[9]
  Emax (BRET) (normalized acceptor:donor ratio): 0.0931
[10]
  Emax (BRET) (normalized acceptor:donor ratio): 0.0359
[11]
  Emax (BRET) (normalized acceptor:donor ratio): 0.00242
[12]
  Emax (BRET) (normalized acceptor:donor ratio): -0.00162
[13]
  Emax (BRET) (normalized acceptor:donor ratio): -0.000883
[14]
  Emax (BRET) (normalized acceptor:donor ratio): 0.00138
[15]
  Emax (BRET) (normalized acceptor:donor ratio): 0.0638
[16]
  Emax (BRET) (normalized acceptor:donor ratio): 0.000955
[17]
  Emax (BRET) (normalized acceptor:donor ratio): 0.0782
[18]
  Emax (BRET) (normalized acceptor:donor ratio): 0.0623
[19]
  Emax (BRET) (normalized acceptor:donor ratio): 0.0481
[20]
  Emax (BRET) (normalized acceptor:donor ratio): 0.0667
[21]
  Emax (BRET) (normalized acceptor:donor ratio): 0.0821
